Data as given in the supplement of paper PMC12764529.
± gives the half width of the 95% confidence interval.

Columns and labels:
[1] = folding stability dG unfold (combined trypsin and chymotrypsin); higher = more stable
In short: (§1)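 Designed mini-proteins with no cysteine and under 80 residues were kept only if AlphaFold2 dimer inter-PAE was above 15. In a PA-tagged cDNA display construct, they were digested with trypsin and chymotrypsin and then sequenced. K50 was inferred by Bayesian fitting of counts, and unfolding free energy was derived per protease or combined against a sequence-predicted unfolded-state K50 and a shared folded-state K50.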

[2] = folding stability dG unfold from trypsin proteolysis; higher = more stable
In short: as §1

[3] = folding stability dG unfold from chymotrypsin proteolysis; higher = more stable
In short: as §1

Sequence	folding stability dG unfold [1] [kcal/mol]	folding stability dG unfold [2] [kcal/mol]	folding stability dG unfold [3] [kcal/mol]
SMKKTIIIKVKKEDMTPEEIAKKLAELGYEVEIVDVEYDEETEEVYITVEIYDENGELIEKIEIKLPRKDSA [r9_879_TrROS_Hall]	0.916 ± 0.42	0.825 ± 0.16	0.956 ± 0.17
SMKKTYTFPVTLVPKDGKASLTVNWYAPDGTSLGTQTKSASAEGNTVTATVTVTVDAPPGAKIPSITVNASA [r9_292_JUSTAS]	0.353 ± 0.038	0.091 ± 0.041	0.473 ± 0.052
SMKKVLIVTPNPEINPEEVVKALKEKGFKEIKVFSTPEELKEALPEYDIVIIEENGKLYIKYIPPGKLAKSA [r9_750_TrMRF]	1.35 ± 0.27	0.334 ± 0.17	1.79 ± 0.12
SMKLIGVEEFENAKAVLFEKEDKYIKLVFIPEDIPEGEEIYYIKVFEGDEIIEEKAVKPEEIEEAIKEAGSA [r9_57_TrMRF]	0.428 ± 0.21	0.00129 ± 0.12	0.643 ± 0.21
SMKLIGYDPVTGKPVTLTFDPETKTVTVTHPNGEKITAPAESITFDPETGTVTITLPTKTVTFYVPPEANSA [r9_325_TrMRF]	4.82 ± 0.2	3.89 ± 0.27	4.93 ± 0.12
SMKPGDWKWIMFRFPDAENMEITIPIPLPPGYRVWFFFMNGERHEIPAGQEIKFKMPPGEPMWMMIWIWKSA [r9_79_TrROS]	4.06 ± 0.26	3.66 ± 0.11	4.7 ± 0.1
SMKPGEVKELTLKLTIPVKPGEITVTLVLKLEDGRYVVVESRATVKEDGTIEIEVKIRVYDPKTNEWKELSA [r9_349_TrROS_Hall]	2.89 ± 0.35	2.37 ± 0.19	3.28 ± 0.18
SMKPGQTVTFNVMIRMKDPNMTAQEFAEEAADEIAENFPPGVKIEIKVDDIEPDPPNGEVYFMVKITITVSA [r9_706_TrROS]	3.35 ± 0.23	2.54 ± 0.17	4 ± 0.13
SMKPITLEEALKLAEKLIEEGAKEVVIIRREDGTLLAIMEAEEASPEKVKEFLEANPNVRVLRITGSKEESA [r9_568_TrMRF]	3.07 ± 0.12	3.17 ± 0.15	3.11 ± 0.045
SMKPPVVEIKAKVVEVKEVNGKLYVKVEITEIKDAPPEVKELIKEGKTILVEVKPGEEVKEGDEVTIKIVSA [r9_557_TrROS_Hall]	2.32 ± 0.3	2.46 ± 0.21	2.03 ± 0.22
SMKPVKITEVTEDTITVTVTVYDKETNRLVKVTAEITFDKETKKLTIKVKVEVLPPLSEEQRKALEEALKSA [r9_1038_TrROS_Hall]	2.74 ± 0.17	1.98 ± 0.076	2.94 ± 0.07
SMKSEEEKKAKELKKQKPVIVFDKETGKITVYDAKTGKKIEIEVKVKKTKDGKVEPLTEEELKKLLKKLASA [r9_1056_TrROS_Hall]	1.12 ± 0.38	1.63 ± 0.077	1.19 ± 0.28
SMKSKIEVKTVTFTFSPDDPLAKTPLEEIISEKAKKEGKKIEIPSYSYTSTDPAKGTKTYTFTVKIIKEESA [r9_107_JUSTAS]	0.534 ± 0.14	0.122 ± 0.16	0.797 ± 0.21
SMKTVVIKIRKKDGKVTLEEIREAIKALLPPGAKVKLTEEELEKLVEELEKKTGKEITADDLVIVVEVEPSA [r9_197_TrROS_Hall]	2.51 ± 0.16	2.29 ± 0.085	2.59 ± 0.081
SMKVEIEEEVEGDRITLTIKFDDEEEAEKAIKELAKELGIPMKVLSRESEKLPGGEYKLTITGEVPPDLKSA [r9_102_JUSTAS]	0.529 ± 0.24	0.192 ± 0.083	1.1 ± 0.24
SMKVTLDGKGSVTTMPAEQLEVLIKELKEKGYKVKILSEEPDPNSDTVNYTIEITPPKPEKEEFENEELKSA [r9_448_JUSTAS]	1.59 ± 0.12	0.948 ± 0.039	1.94 ± 0.12
SMKVTVTVERLPDGRGRITITINDSTLEIEVPPGLDPEELRAFAEETAKEIEEKLKEEGNPVTIEEITLSSA [r9_751_JUSTAS]	2.15 ± 0.24	2.58 ± 0.14	1.61 ± 0.14
SMKVYVKVLPPEYAVAYIYTDKKYEIPIPTTDLEEARAQIEEIVNEIEKRTGVKAEVEITEVAPDTKIPLSA [r9_786_JUSTAS]	0.74 ± 0.22	0.182 ± 0.15	0.928 ± 0.13
SMKYVKILLTLKGKPHVITIPSSLSLEEIIDKAIEFAKELGYKDIPKEELKILKVEENPDEEGSSSIIIGSA [r9_1053_TrMRF]	3.61 ± 0.14	3.48 ± 0.2	3.74 ± 0.042
SMLKEIPITVPEEGEVVTVNIEELAKEQGLDPNNVTVTVTSSGPGKVYKITISSNGITITEVGNVPTALLSA [r9_819_JUSTAS]	0.717 ± 0.081	0.546 ± 0.04	0.684 ± 0.098
SMLLIKITVKNPDGEEKEIVLSAEELRKLFEEETGEEYSLEEIAERLKKLFPNAKVEIVPLEELSEEELKSA [r9_1085_TrROS_Hall]	3.31 ± 0.12	2.77 ± 0.073	3.58 ± 0.068

Sequence	folding stability dG unfold [1] [kcal/mol]	folding stability dG unfold [2] [kcal/mol]	folding stability dG unfold [3] [kcal/mol]
SMLVLRLPDNRLAVLEYDPETKRLRVLVVDPESGRLTVAEIHPETGEITVDEYTLLPNGEPLPHRFELPLSA [r9_1073_TrMRF]	2.73 ± 0.058	2.84 ± 0.099	2.54 ± 0.048
SMLYRVTTVVVRGDRPLVIPVLADSLEAFLEEAREAIPPELREELPPDAVVRVFVEPVPAVVPEPGEPLPSA [r9_111_TrMRF]	1.77 ± 0.25	1.42 ± 0.057	2.03 ± 0.069
SMMIKVKITITNEKGEEVEIEIVASPEEIEEALRKLLPPGAKVEIEKIEFYPLEELKPGDVIKITVRVKPSA [r9_803_TrROS_Hall]	3.72 ± 0.34	2.85 ± 0.11	4.47 ± 0.54
SMNIHIPILTRPDVDEETIEEEVEALAAELAEKLGLPEGVEVEIEPEPLPEDGVVYHVTLRVGDVEFKGESA [r9_776_TrMRF]	0.0299 ± 0.33	0.168 ± 0.14	0.0835 ± 0.4
SMNIVEIEVEEKIIGDTTTITIPIKVNGPAVSEEEIKKIVEDIFKKKGLKINIKIEKDPNSGVITITIIESA [r9_717_JUSTAS]	2.33 ± 0.19	2.01 ± 0.15	2.55 ± 0.12
SMNPIGNPITLPDGTTITIIPDLGLILIYDPETGTFIARLILVDENGIPHIFPFIGKIDPETGEIIEIDPSA [r9_122_TrMRF]	3.87 ± 0.069	3.31 ± 0.11	4.13 ± 0.062
SMPEILDVREDPDAPGALTFRVKLPDGEATVVIPYDPETGTFTAVRYYPDGEEVREFDSFEDALEAILEDSA [r9_366_TrMRF]	1.49 ± 0.053	1.45 ± 0.019	1.46 ± 0.051
SMPGSITVEIEVEEEEDPERGGRRIKKLLIKKVTYKDEKGNSSDEVANEIKNALKEKLEKEGKPAEIELTSA [r9_261_JUSTAS]	1.27 ± 0.37	1.35 ± 0.081	1.11 ± 0.23
SMPIEVRVDLERLEDGTLLAVIEIRHPDVQVAEDAAIELARELFPEDVELRIETTPDGRVIAPILLPLPESA [r9_646_TrMRF]	2.58 ± 0.22	3.14 ± 0.14	1.74 ± 0.17
SMPKKIIVLEVDEEEIKEFLEKLELGEDTEVKILLSFPDGKTALLEIGPNEIKSIKPIDAIPEKAYIVIASA [r9_849_TrMRF]	1.08 ± 0.2	1.71 ± 0.14	0.755 ± 0.14
SMPLPFEATVTVPVRDEETGETYTVTVKVEAVNPAVPRPLPDGSIEYEPIPLETVLEIVEKAAEELAKALSA [r9_698_TrMRF]	1.56 ± 0.14	1.27 ± 0.074	1.55 ± 0.058
SMQINVERNPENGTVIIHIPMEDMPPENIREILKDLPPNNKRVTIHMHDPPYMRWLKELAKEKGFPIKITSA [r9_919_TrROS]	0.623 ± 0.15	0.824 ± 0.098	0.453 ± 0.21
SMRVVLVRPVPPELKEAELELRLPLPDGSEVEVKAETGEDFVVVTIELDDESAAEAVVEELEKLLEELLGSA [r9_790_TrMRF]	1.13 ± 0.053	0.926 ± 0.019	1.17 ± 0.034
SMSEKVEIDPAAIAEALKAGTEYEFDIKVTVTLFDPSNGKKVSTEEKVVKVKLKIPPPSPLPDPKNGYLLSA [r9_396_JUSTAS]	1.29 ± 0.2	1.11 ± 0.038	1.4 ± 0.079
SMSEVVEESEFNGEKVITIKVTLPDGTPVTVTITLSPEGEGTVTTVPPSSSTSTTTTVPVSQVDEVLEALSA [r9_91_JUSTAS]	1.61 ± 0.074	1.95 ± 0.061	1.4 ± 0.031
SMSPEARALARELAERLRELFPGAEIEIRVEVEVNEDGEVTIRVEIRVRPAPPPEVRVVRDEDGRERRLRSA [r9_82_TrROS_Hall]	1.8 ± 0.074	1.09 ± 0.1	2.04 ± 0.04
SMSRPVEVEFELPLEGEGPVRLRATLVVDPESGVVEIPVRARFPEREEDVDLPPELLERLARRVLEELGGSA [r9_1136_TrMRF]	1.1 ± 0.034	0.744 ± 0.031	1.25 ± 0.034
SMTIEGMSPREAVRNIIEEFIEMFEANGNPPMPIKIRFPGNGKPIYEFPIQSKEQLLDQIENGVPVSIEFSA [r9_718_TrROS]	0.183 ± 0.1	0.604 ± 0.027	-0.498 ± 0.18
SMTIKLPSKDFKLETLPDGTIKLTVKEPDGTVVTYTFPKGDKITKIEKITPDTIKLTFEKKPRLNPEILLSA [r9_501_JUSTAS]	3.07 ± 0.22	2.16 ± 0.097	3.65 ± 0.053
SMTIRVEGVPPGVTAEELAARLRAELEAAGYEVTSIKVTRRADGSLVVEIEVKPAPPPEPVEVVEEREEESA [r9_953_TrROS_Hall]	3.62 ± 0.17	3.4 ± 0.13	3.75 ± 0.16
SMTITFKTEEEAKKAAEELLKELEKKLKPGQKIKITVTTEDGKTITIEIEIKPPKKEVEVDEETGELKEKSA [r9_596_TrROS_Hall]	1.97 ± 0.18	0.898 ± 0.073	2.26 ± 0.081
